Experimental findings from publication PMC5656587, “Structure determination and activity manipulation of the turfgrass ABA receptor FePYR1” (Scientific Reports, 2017) are described below.

Changes are numbered by the printed parent chain. Numbers in names are those of the source.

One data set concerns the target T1, FePYR1-ABA-AtHAB1 (Festuca elata, UniProt A0A2D1UXN2).
T1 construct: H6-SUMO-FePYR1 and biotin-MBP-AtHAB1 (172-511), E. coli; tags kept for AlphaScreen; with Protein phosphatase 2C 16 (HAB1, Arabidopsis thaliana)
T1 sequence (A0A2D1UXN2 1-212): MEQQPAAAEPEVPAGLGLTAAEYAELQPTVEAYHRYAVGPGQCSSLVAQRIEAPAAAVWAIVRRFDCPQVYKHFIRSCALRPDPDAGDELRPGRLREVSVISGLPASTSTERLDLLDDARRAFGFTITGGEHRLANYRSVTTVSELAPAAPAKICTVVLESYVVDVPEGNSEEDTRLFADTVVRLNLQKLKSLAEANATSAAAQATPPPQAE
T1 sequence (Q9CAJ0 172-511 partner): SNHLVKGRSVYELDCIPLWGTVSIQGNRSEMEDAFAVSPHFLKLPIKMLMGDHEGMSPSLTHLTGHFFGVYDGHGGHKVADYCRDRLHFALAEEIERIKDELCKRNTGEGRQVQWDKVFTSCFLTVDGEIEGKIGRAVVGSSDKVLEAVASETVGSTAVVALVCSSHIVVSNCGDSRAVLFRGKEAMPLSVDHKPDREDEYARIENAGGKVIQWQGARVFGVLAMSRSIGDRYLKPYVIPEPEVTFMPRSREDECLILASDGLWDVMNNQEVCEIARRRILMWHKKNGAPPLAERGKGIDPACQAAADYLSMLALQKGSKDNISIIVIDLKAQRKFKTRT
The data set is described as follows: AlphaScreen, ABA-dependent receptor-PP2C interaction. It is filed as binding. The source says: AlphaScreen, ABA-dependent receptor-PP2C interaction on FePYR1-ABA-AtHAB1 | EC50 values of FePYL1, FePYR1, ZjPYL2 in interacting with AtHAB1
For orientation: Alpha assays give light when donor and acceptor beads are brought close together.

A further data set deals with T2, AtPYR1 (Arabidopsis thaliana, UniProt O49686).
T2 construct: gene PYR1; homodimer
T2 sequence (O49686 9-182): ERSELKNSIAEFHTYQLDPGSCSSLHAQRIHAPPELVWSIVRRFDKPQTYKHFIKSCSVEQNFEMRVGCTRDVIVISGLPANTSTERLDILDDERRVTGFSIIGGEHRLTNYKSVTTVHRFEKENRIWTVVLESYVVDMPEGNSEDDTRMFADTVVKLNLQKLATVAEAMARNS
Nature of the data set: ABA binding assay in supplement (method not given). The following applies: affinity reported comparable to FePYR1.

In a further data set the target is T3, ZjPYL2 with AtHAB1 (Zoysia japonica, UniProt A0A2D1UXP2).
T3 construct: H6-SUMO-ZjPYL2 and biotin-MBP-AtHAB1 (172-511), E. coli; tags kept; with Protein phosphatase 2C 16 (HAB1, Arabidopsis thaliana)
T3 sequence (A0A2D1UXP2 1-216): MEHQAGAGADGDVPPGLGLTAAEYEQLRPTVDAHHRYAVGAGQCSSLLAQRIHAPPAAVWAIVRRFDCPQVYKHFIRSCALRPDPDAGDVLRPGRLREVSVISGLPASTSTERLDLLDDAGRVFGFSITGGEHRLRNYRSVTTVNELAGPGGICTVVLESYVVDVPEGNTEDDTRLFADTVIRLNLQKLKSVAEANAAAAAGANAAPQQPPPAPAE
T3 sequence (Q9CAJ0 172-511 partner): T1 sequence (Q9CAJ0 172-511 partner)
The data set is described as follows: AlphaScreen, ABA-dependent receptor-PP2C interaction. It is filed as binding. The source says: AlphaScreen, ABA-dependent receptor-PP2C interaction on ZjPYL2 with AtHAB1 | EC50 values of FePYL1, FePYR1, ZjPYL2 in interacting with AtHAB1

For a further data set, the target named is T4, FePYL1 with AtHAB1 (Festuca elata, UniProt A0A2D1UXN6).
T4 construct: H6-SUMO-FePYL1 and biotin-MBP-AtHAB1 (172-511), E. coli; tags kept; with Protein phosphatase 2C 16 (HAB1, Arabidopsis thaliana)
T4 sequence (A0A2D1UXN6 1-204): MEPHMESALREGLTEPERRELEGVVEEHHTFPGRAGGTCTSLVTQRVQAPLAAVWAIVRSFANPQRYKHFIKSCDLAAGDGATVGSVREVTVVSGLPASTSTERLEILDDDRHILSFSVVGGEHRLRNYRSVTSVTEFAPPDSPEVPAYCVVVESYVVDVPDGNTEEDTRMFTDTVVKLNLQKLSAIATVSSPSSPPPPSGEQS
T4 sequence (Q9CAJ0 172-511 partner): T1 sequence (Q9CAJ0 172-511 partner)
Described as above. It is filed as binding. The source says: AlphaScreen, ABA-dependent receptor-PP2C interaction on FePYL1 with AtHAB1 | EC50 values of FePYL1, FePYR1, ZjPYL2 in interacting with AtHAB1

Another data set addresses T5, AtPYR1 with AtHAB1 (Arabidopsis thaliana, UniProt O49686).
T5 construct: gene PYR1; H6-SUMO-AtPYR1 (9-182) and biotin-MBP-AtHAB1 (172-511), E. coli; tags kept; with Protein phosphatase 2C 16
T5 sequence (O49686 9-182): T2 sequence (O49686 9-182)
T5 sequence (Q9CAJ0 172-511 partner): T1 sequence (Q9CAJ0 172-511 partner)
Described as above. It is filed as binding.

The target of data set [1] is T6, biotin-MBP-tagged AtHAB1 (residues 172-511), Q9CAJ0.
T6 chain: T1 sequence (Q9CAJ0 172-511 partner)
Nature of the data set: AlphaScreen. The note with it: chain shown with the change, read off a plot.

Data set [2] concerns the molecule itself. Nature of the data set: SEC; HPLC size-exclusion column chromatography with or without (+)-ABA; 43 kD protein marker.
Where [3] appears, read: ABA (100 μM), parent: est. 8400.
Setting [4] is: DMSO (no ABA), parent: est. 2200.

By EC50 is commonly meant the concentration that produces a half-maximal response. Regarding `CC1=CC(=O)CC(C)(C)C1(O)/C=C/C(C)=C\C(=O)O` (stereo in doubt) [(+)-ABA], the EC50 is 2.3 µM on FePYR1-ABA-AtHAB1, 3.73 µM on ZjPYL2 with AtHAB1, 0.671 µM at FePYL1 with AtHAB1 and 7.36 µM on AtPYR1 with AtHAB1. Also, at AtPYR1, the “ABA binding assay in supplement (method not given)” value is “the binding affinity with ABA ... are comparable between these two ABA receptors”.

B1: H6-SUMO-tagged FePYR1 L104A (protein)
chain: T1 sequence (A0A2D1UXN2 1-212) with L104A
B1: in data set [1] (setting [3]), the response (photon counts) came to 2500.

B2: H6-SUMO-tagged FePYR1 E111A (protein)
chain: T1 sequence (A0A2D1UXN2 1-212) with E111A
As for B2, the response (photon counts) in data set [1] (setting [3]) came to 800.

B3: H6-SUMO-tagged FePYR1 S102A (protein)
chain: T1 sequence (A0A2D1UXN2 1-212) with S102A
Take B3: the response (photon counts) in data set [1] (ABA (2 μM), parent: est. 6900) amounted to 750; in data set [1] (ABA (10 μM), parent: est. 12000), 3000; in data set [1] (setting [3]) it was 5800.

B4: H6-SUMO-tagged FePYR1 L185C (protein)
chain: T1 sequence (A0A2D1UXN2 1-212) with L185C
As for B4, the response (photon counts) in data set [1] (ABA (5 μM), parent: est. 17000) was found to be 16000; in data set [1] (setting [4]), 2200.

B5: H6-SUMO-tagged FePYR1 I127A (protein)
chain: T1 sequence (A0A2D1UXN2 1-212) with I127A
As to B5, the response (photon counts) amounted to 9500 in data set [1] (ABA (5 μM), parent: est. 17000) and 2100 in data set [1] (setting [4]).

B6: AtPYR1 (size-exclusion chromatography, with or without ABA) (receptor, Arabidopsis, UniProt O49686 9-182, looked up)
chain: T2 sequence (O49686 9-182)
notes: Arabidopsis ABA receptor PYR1; also called AtPYR1-apo; source: E. coli, purified
The stoichiometry N is the number of molecules, sites or subunits per partner or assembly. Consider B6, for which the “stoichiometry N” value in data set [2] stood at 2.
